Assay results reported in publication PMC4519192, “In vitro Selection and Interaction Studies of a DNA Aptamer Targeting Protein A”.

What was measured:
[1] = target: T1, Protein A, native biotinylated (Sigma P2165) (Staphylococcus aureus, UniProt P38507 37-477); test: bead-based fluorescence binding; conditions: tags: biotin, label: 5'-fluorescein
[2] = target: T2, Protein A, native (Sigma P3838) (Staphylococcus aureus, UniProt P38507 37-477); test: MST; 25 C, in solution; conditions: protein: native, label: 5'-fluorescein
[3] = target: T3, Protein A, recombinant (Sigma P7837) (UniProt P38507 37-327); test: MST; 25 C, in solution; conditions: protein: recombinant, label: 5'-fluorescein
[4] = target: T1, Protein A, native biotinylated (Sigma …); test: SPR; steady state; Protein A immobilized ~600 RU; conditions: tags: biotin, label: 5'-fluorescein
[5] = target: T1, Protein A, native biotinylated (Sigma …); test: SPR; kinetic 1:1 fit; ka 1.23e3 M-1s-1, kd 1.66e-3 s-1; conditions: tags: biotin, label: 5'-fluorescein
[6] = target: T1, Protein A, native biotinylated (Sigma …); test: bead-based fluorescence binding; Protein A on streptavidin beads; conditions: tags: biotin, label: 5'-fluorescein
[7] = target: human thrombin (89223 Fluka) (human, UniProt P00734;P00734 328-363;364-622); test: SPR
[8] = target: Protein G, recombinant (Pierce 21193) (group G Streptococci, UniProt P06654 228-352); test: SPR; 1000 nM protein; conditions: label: 3'-biotin, predicted stem-loops, possible G4
[9] = target: T3, Protein A, recombinant (Sigma P7837); test: SPR; single-cycle mode; aptamer 516 RU; conditions: label: 3'-biotin
[10] = target: T3, Protein A, recombinant (Sigma P7837); test: SPR; steady state; aptamer immobilized 1086 RU; avidity; conditions: label: 3'-biotin
[11] = target: T2, Protein A, native (Sigma P3838); test: SPR; steady state; aptamer immobilized 1158 RU; avidity; conditions: label: 3'-biotin
[12] = target: T3, Protein A, recombinant (Sigma P7837); test: SPR; steady state; aptamer immobilized 1030 RU; conditions: label: 3'-biotin, predicted stem-loop

Protein G, recombinant (Pierce 21193), sequence (P06654 228-352): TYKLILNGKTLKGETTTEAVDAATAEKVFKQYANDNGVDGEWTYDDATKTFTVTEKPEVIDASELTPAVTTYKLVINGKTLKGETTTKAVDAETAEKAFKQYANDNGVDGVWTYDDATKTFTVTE

B1: PA#2/8KR40 (structured_DNA)
DNA: AGCAACATGAGGGGGATAGAGGGGGTGGGTTCTCTCGGCT
binding result [1]: no binding

B2: PA#2/8 5'-fluorescein (structured_DNA)
DNA: ATACCAGCTTATTCAATTAGCAACATGAGGGGGATAGAGGGGGTGGGTTCTCTCGGCTACAATCGTAATCAGTTAG
Kd [2]: 668 ± 224 nM | Kd [3]: 927 ± 404 nM | Kd [4]: 2220 ± 180 nM | Kd [5]: 1350 nM | Kd [6]: 1060 ± 200 nM

B3: PA#2/8 3'-biotin (structured_DNA)
DNA: ATACCAGCTTATTCAATTAGCAACATGAGGGGGATAGAGGGGGTGGGTTCTCTCGGCTACAATCGTAATCAGTTAG
binding result [7]: no binding | binding result [8]: no binding | Kd [9]: 148 ± 7.6 nM | Kd [10]: 172 ± 14 nM | Kd [11]: 84 ± 5 nM

B4: PA#2/8[S1-35] (structured_DNA)
DNA: ATACCAGCTTATTCAATTAGCAACATGAGGGGGAT
binding result [1]: no binding

B5: PA#2/8[S1-28] (structured_DNA)
DNA: ATACCAGCTTATTCAATTAGCAACATGA
binding result [1]: no binding

B6: PA#2/8KR23 (structured_DNA)
DNA: GATAGAGGGGGTGGGTTCTCTCG
binding result [1]: no binding

B7: PA#2/8[S19-76] (structured_DNA)
DNA: AGCAACATGAGGGGGATAGAGGGGGTGGGTTCTCTCGGCTACAATCGTAATCAGTTAG
binding result [1]: no binding

B8: PA#2/8[S1-43] (structured_DNA)
DNA: ATACCAGCTTATTCAATTAGCAACATGAGGGGGATAGAGGGGG
Kd ([2]; predicted stem-loop): 214 ± 46.1 nM | Kd ([3]; predicted stem-loop): 579 ± 123 nM

B9: PA#2/8[S1-58] 5'-fluorescein (structured_DNA)
DNA: ATACCAGCTTATTCAATTAGCAACATGAGGGGGATAGAGGGGGTGGGTTCTCTCGGCT
Kd ([2]; predicted stem-loop): 222 ± 60.5 nM | Kd ([3]; predicted stem-loop): 94.7 ± 64.6 nM | Kd ([4]; predicted stem-loop): 1920 ± 250 nM

B10: PA#2/8[S1-58] 3'-biotin (structured_DNA)
DNA: ATACCAGCTTATTCAATTAGCAACATGAGGGGGATAGAGGGGGTGGGTTCTCTCGGCT
Kd [12]: 287 ± 16.2 nM
